According to patent US5804555:

Molecular target: commercially available lactoferrin (manufactured by Oleofina Company, Belgium) just as isolated from cow's milk (bovine (cow's milk)) (UniProt P24627)

hydrolyzing rate of the product: 11.3%
Substance: commercially available swine pepsin (1:10000; manufactured by Wako Jun-yaku Co., Ltd.) (from UniProt P00791) (enzyme)
